Legend:
[1] = target: T1, SARS-COV2 Spike RBD, Beta (SARS-CoV-2, UniProt P0DTC2 319-541); experiment: SPR; 'N/A indicates a lack of binding'
T1 construct: domain: RBD

[2] = target: T2, SARS-COV2 Spike RBD, Delta (SARS-CoV-2, UniProt P0DTC2 319-541); experiment: SPR; 'N/A indicates a lack of binding'
T2 construct: domain: RBD

B1: AI-Designed Binder (de novo casirivimab HCDR3 variant) (Fab, V domains shown)
VH: QVQLVESGGGLVKPGGSLRLSCAASGFTFSDYYMSWIRQAPGKGLEWVSYITYSGSTIYYADSVKGRFTISRDNAKSSLYLQMNSLRAEDTAVYYCARDWGQTWDSYFDYWGQGTLVTVSS
VL: DIQMTQSPSSLSASVGDRVTITCQASQDITNYLNWYQQKPGKAPKLLIYAASNLETGVPSRFSGSGSGTDFTFTISGLQPEDIATYYCQQYDNLPLTFGGGTKVEIKR
notes: Fab format
- binding result [1]: no binding
- binding result [2]: no binding
